The results in this text go back to patent publication US20080015137A1 (University of Texas, published 2008).

The term Kd denotes the equilibrium constant for the complex coming apart. Higher therefore signals weaker binding.

Assay [1] addresses T1, Karyopherin beta2 (Kapβ2), full length, wild type (human, UniProt Q92973-2 1-890).
T1 construct: mature; Expressed as a GST fusion from pGEX-Tev and purified; Also used here for the Kapβ2 added in the GST pull-downs; also called Transportin
T1 sequence (looked up): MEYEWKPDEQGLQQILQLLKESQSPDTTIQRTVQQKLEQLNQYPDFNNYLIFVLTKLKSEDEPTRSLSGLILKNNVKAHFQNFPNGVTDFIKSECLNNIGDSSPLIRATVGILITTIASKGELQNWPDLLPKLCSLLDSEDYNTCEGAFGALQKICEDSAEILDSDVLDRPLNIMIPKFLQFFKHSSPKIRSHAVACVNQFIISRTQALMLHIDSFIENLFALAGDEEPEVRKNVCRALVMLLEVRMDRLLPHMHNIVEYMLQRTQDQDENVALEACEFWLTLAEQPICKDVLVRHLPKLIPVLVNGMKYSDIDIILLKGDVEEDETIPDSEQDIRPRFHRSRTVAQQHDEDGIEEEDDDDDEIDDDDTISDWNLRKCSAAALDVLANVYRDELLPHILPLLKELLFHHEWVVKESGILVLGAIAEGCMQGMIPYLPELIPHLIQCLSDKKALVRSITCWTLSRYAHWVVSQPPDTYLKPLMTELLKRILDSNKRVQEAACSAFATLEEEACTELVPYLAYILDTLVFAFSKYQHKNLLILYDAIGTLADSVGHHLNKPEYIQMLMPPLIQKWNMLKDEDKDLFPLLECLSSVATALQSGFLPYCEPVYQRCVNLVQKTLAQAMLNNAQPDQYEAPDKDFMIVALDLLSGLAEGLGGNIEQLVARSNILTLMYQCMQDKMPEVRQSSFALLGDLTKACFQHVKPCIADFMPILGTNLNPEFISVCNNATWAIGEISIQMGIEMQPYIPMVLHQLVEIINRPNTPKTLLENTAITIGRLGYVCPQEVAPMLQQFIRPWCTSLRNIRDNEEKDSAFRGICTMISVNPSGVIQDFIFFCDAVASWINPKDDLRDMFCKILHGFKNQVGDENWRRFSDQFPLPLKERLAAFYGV
Nature of the assay: competition ITC; 108 µM MBP-M9M titrated into 12 µM Kapβ2 with 18 µM MBP-hnRNP A1-NLS R284A/P288A/Y289A as displacement ligand.

The target in assay [2] is T1, Karyopherin beta2 (Kapβ2), full length, …. The assay is described as follows: competition ITC (107 pM versus 20 nM for hnRNP A1-NLS).
Assay [3] has the same target. Nature of the assay: competition ITC; repeat with 20 µM MBP-hnRNP A1-NLS R284A/P288A/Y289A as displacement ligand.
The target is the same in assay [4]. Nature of the assay: competition ITC (control); 154 µM MBP-hnRNP A1-NLS titrated into 12 µM Kapβ2 with MBP-hnRNP A1-NLS R284A/P288A/Y289A as displacement ligand.
Assay [5] shares this target. The assay is described as follows: ITC; MBP-M9NLS(257-305) titrated into full length Kapβ2. Background: Isothermal titration calorimetry measures the heat released or taken up as one component is titrated into another.
Procedure: Substrate residues that make two or more sidechain contacts with Kapβ2 (F273, F281, R284, P288 and Y289) were systematically mutated to alanines.
The ITC studies used a MicroCal Omega VP-ITC calorimeter (MicroCal Inc., Northampton, Mass.). Proteins were dialyzed against buffer containing 20 mM Tris pH 7.5, 100 mM NaCl and 2 mM P-mercaptoethanol. […] Most ITC studies were done at 20° C. with 35 rounds of about 8 μl injections. […] Data was plotted and analyzed using MicroCal Origin software version 7.0, with a single binding site model.
The target is the same in assay [6]. Nature of the assay: ITC; MBP-hnRNP M(41-70) titrated into full-length Kapβ2. The procedure:
(§1) Quantitation of binding affinity with Isothermal Titration Calorimetry. Binding affinities for wild type and mutant MBP-hnRNP M-NLS were determined using Isothermal titration calorimetry (ITC). The experiments were performed using a MicroCal Omega VP-ITC calorimeter (MicroCal Inc., Northampton, Mass.). MBP-NLS proteins were dialyzed against buffer containing 20 mM Tris pH 7.5, 100 mM NaCl and 2 mM β-mercaptoethanol. […] All ITC experiments were done at 20° C. with 35 rounds of 8 μl injections. Data were plotted and analyzed using the single binding site model of MicroCal Origin software version 7.0.

Assay [7] has the same target. The assay is described as follows: ITC; MBP-hnRNP M(41-70) mutant titrated into full-length Kapβ2. The procedure: as §1
The target is the same in assay [8]. The assay is described as follows: ITC; MBP-hnRNP M(41-70) mutant titrated into full-length Kapβ2; unit cell prints only n. As for the experimental part:
as §1

No end group written: not given here.

Turning to GPGYSGGSRGYGSGGQGYGNQGSGYGGSFEPYANPTKR (designed binder) [MBP-M9M], the Kd in assay [1] turned out to be 0.107 nM; in assay [3] it was 0.111 nM. Further, in assay [2], the “fold tighter binding against natural NLS (hnRNP A1-NLS)” value is 200 fold.

B1: MBP-M9NLS(257-305) wild type (other, human, UniProt P09651-2 257-305, looked up, not shown: large carriers)
chain: GGSYNDFGNYNNQSSNFGPMKGGNFGGRSSGPYGGGGQYFAKPRNQGGY
notes: MBP fusion of the NLS peptide; also called MBP-hnRNP A1-NLS; wildtype hnRNP A1-NLS
With B1, the values for the Kd in assay [4] and in assay [5] were 20 nM and 42 nM, respectively.

B2: MBP-hnRNP M(41-70) wild type (other, human, UniProt P52272 41-70, looked up, not shown: large carriers)
chain: ERPAQNEKRKEKNIKRGGNRFEPYANPTKR
modifications: also: MBP fusion partner, not in chain
notes: range 41-70; also called MBP-hnRNP M-NLS; hnRNP M-NLS
On to B2, for which, in assay [6], binding was characterised by a dissociation constant (Kd) of 10 nM.

In turn, ERPAQNEKRKEKNIARGGNRFEPYANPTKR (other, not shown: large carriers; small tags and cut ends, also: MBP fusion partner, not in chain) [MBP-hnRNP M(41-70) K55A] registered a Kd in assay [7] of 7.6 nM.

B3: MBP-hnRNP M(41-70) K50A/E51A/K52A/N53A/I54A/K55A/R56A (other, not shown: large carriers; small tags and cut ends)
chain: ERPAQNEKRAAAAAAAGGNRFEPYANPTKR
modifications: also: MBP fusion partner, not in chain
notes: also called all seven residues of 50KEKNIKR56 mutated to alanines
B3 gave a Kd in assay [7] of 1200 nM.

Consider ERPAQNEKRKEANIKRGGNRFEPYANPTKR (other, not shown: large carriers; small tags and cut ends, also: MBP fusion partner, not in chain) [MBP-hnRNP M(41-70) K52A], for which the Kd in assay [7] was 14.6 nM.

ERPAQNEKRAEKNIKRGGNRFEPYANPTKR (other, not shown: large carriers; small tags and cut ends, also: MBP fusion partner, not in chain) [MBP-hnRNP M(41-70) K50A]: binding in assay [7] was characterised by a dissociation constant (Kd) of 16.4 nM.

In assay [7], ERPAQNEKRKEKAIKRGGNRFEPYANPTKR (other, not shown: large carriers; small tags and cut ends, also: MBP fusion partner, not in chain) [MBP-hnRNP M(41-70) N53A] showed a Kd of 17.1 nM.

Turning to ERPAQNEKRKEKNIKAGGNRFEPYANPTKR (other, not shown: large carriers; small tags and cut ends, also: MBP fusion partner, not in chain) [MBP-hnRNP M(41-70) R56A], the affinity in assay [7], expressed as Kd, was 13.9 nM.

Take ERPAQNEKRKEKNAKRGGNRFEPYANPTKR (other, not shown: large carriers; small tags and cut ends, also: MBP fusion partner, not in chain) [MBP-hnRNP M(41-70) I54A]: the Kd in assay [7] stood at 8.8 nM.

In assay [7], ERPAQNEKRKEKNIKRGGNRAEAAANPTKR (other, not shown: large carriers; small tags and cut ends, also: MBP fusion partner, not in chain) [MBP-hnRNP M(41-70) F61A/P63A/Y64A] came in with a Kd of 8600 nM.

Turning to ERPAQNEKRKEKNIKRGGNRFEPYANATKR (other, not shown: large carriers; small tags and cut ends, also: MBP fusion partner, not in chain) [MBP-hnRNP M(41-70) P67A], the affinity in assay [8], expressed as Kd, was 8.7 nM.

On to ERPAQNEKRKEKNIKRGGNRAEPYANPTKR (other, not shown: large carriers; small tags and cut ends, also: MBP fusion partner, not in chain) [MBP-hnRNP M(41-70) F61A], for which, in assay [7], binding was put at a Kd of 11.2 nM.

Consider ERPAQNEKRKEKNIKRGGNRFEAAANPTKR (other, not shown: large carriers; small tags and cut ends, also: MBP fusion partner, not in chain) [MBP-hnRNP M(41-70) P63A/Y64A], for which the affinity in assay [7], expressed as Kd, was 4500 nM.

B4: MBP-hnRNP M(41-70) K50A/E51A/K52A/N53A (other, not shown: large carriers; small tags and cut ends)
chain: ERPAQNEKRAAAAIKRGGNRFEPYANPTKR
modifications: also: MBP fusion partner, not in chain
notes: also called quadruple 50KEKN53/AAAA hnRNP M mutant
Take B4: the Kd in assay [7] stood at 22.3 nM.
